Consider 1 substance from paper PMC3192843.

Broadly, the Kd is the concentration at which binding is half-saturated.

This data set relates to nsp16;nsp10 (SARS-CoV strain WHU;SARS-CoV strain WHU). Description: ITC. The settings on record: 5' m7GpppA cap-0.

m7GpppA-RNA gave a Kd of 1.21 µM.
